From patent US20060292565A1 come the findings set out here.

This experiment addresses stimulatory G-protein, Gs.

In the case of Gly-389 beta-1 adrenergic receptor, the [35S]GTPγS binding in the presence of 10 µM isoproterenol was found to be 770000 dpm/mg.
